Biological target: the molecule itself
Experiment: crystal structure; crystals of free human Nudt16 (2.3 Å, with 100 mM MES pH 5.5) and of Nudt16 incubated with 5 mM FAD (2.7 Å); sitting drop at 20°C, 0.2 M ammonium chloride, 20% PEG 3350

B1: human Nudt16 (residues 1-184) (enzyme, UniProt Q96DE0 1-184, looked up)
chain: MAGARRLELGEALALGSGWRHACHALLYAPDPGMLFGRIPLRYAILMQMRFDGRLGFPGGFVDTQDRSLEDGLNRELREELGEAAAAFRVERTDYRSSHVGSGPRVVAHFYAKRLTLEELLAVEAGATRAKDHGLEVLGLVRVPLYTLRDGVGGLPTFLENSFIGSAREQLLEALQDLGLLQSG
notes: Nudt16, human, residues 1-184, cloned into a modified pET28a vector; Seen as a dimer in both crystal forms, free and with FAD; PDB 3COU is the cited search model for molecular replacement; also called free human Nudt16; source: E. coli BL21(DE3), purified (Ni-NTA, UlpI cleavage, heparin column, Sephacryl S-200); not shown: His6, N-terminal, cleaved; yeast SMT3 SUMO, N-terminal, cleaved
binding result: binds

Source: publication PMC7337524, “Mammalian Nudix proteins cleave nucleotide metabolite caps on RNAs” (Nucleic Acids Research, 2020)
